Experimental data from patent US20210324074A1 (US Dept. of Health and Human Services, published 2021).

Key:
[1] = molecular target: T1, CD22 ECD-Fc fusion protein (UniProt P20273 20-687, limits assumed); experiment: SPR, BIAcore X100, CD22 ECD-Fc immobilized, scFv in flow
T1 construct: extracellular domain; also called CD22-Fc; not shown: Fc part
Description: (§1) FIGS. 13A-13F: (FIG. 13A) BIAcore analysis was used to evaluate association and dissociation curves of various scFvs. […] (FIGS. 13C-13F) Mice were injected with CD22^lo or Nalm6 leukemia on Day 0. […] Bone marrow cells were stained for flow cytometry and analyzed on Fortessa flow machine. Statistics were calculated using unpaired t-test (** p<0.0021).
(§2) Purified CD22 ECD-Fc fusion protein was diluted in 10 mM acetic acid buffer, pH 5.0, immobilized on a CMS biosensor chip for 1400 RU using an amine coupling kit. The running buffer was HBS-EP (10 mM HEPES, pH 7.4, 150 mM NaCl, 3 mM EDTA, 0.05% surfactant P20). The scFvs diluted in running buffer were allowed to flow through the cells at concentrations 0.32, 1.6, 8, 40 and 200 nM. After a 10-minute of dissociation, the chip was regenerated with 10 mM acetic acid, pH 4.0, 0.5 M NaCl. The data were fitted with 1:1 binding model and the dissociation rate constant was estimated with the BIAevaluation software.

[2] = molecular target: T1, CD22 ECD-Fc fusion protein; experiment: SPR, BIAcore X100; CD22 ECD-Fc amine-coupled to the chip, scFv as analyte (0.32-200 nM per paragraph 213), 1:1 fit
Description: as §1, §2

[3] = molecular target: T1, CD22 ECD-Fc fusion protein; experiment: SPR, BIAcore X100, CD22 ECD-Fc immobilized, scFv in flow. The association rate appears only as the divisor in the KD calculation, and its unit is not printed.
Description: as §1, §2

[4] = molecular target: T1, CD22 ECD-Fc fusion protein; experiment: SPR, BIAcore X100, CD22 ECD-Fc immobilized, scFv in flow, 1:1 model. The fitted value is below the instrument's limit.; fitted kd, below the instrument's limit
Description: as §1, §2

[5] = molecular target: T1, CD22 ECD-Fc fusion protein; experiment: SPR, BIAcore X100; CD22 ECD-Fc amine-coupled to the chip, scFv as analyte (0.32-200 nM per paragraph 213), 1:1 fit; calculated from a kd that legend paragraph 27 says is below the instrument's limit
Description: as §1, §2

[6] = molecular target: T1, CD22 ECD-Fc fusion protein; experiment: SPR, BIAcore X100; CD22 ECD-Fc amine-coupled to the chip, scFv as analyte (0.32-200 nM per paragraph 213), 1:1 fit; legend paragraph 27 says this kd is below what the instrument can measure (1.0E-5 1/s)
Description: as §1, §2

CD22 = molecular target: T2, CD22 (UniProt P20273 20-687, limits assumed); experiment: not stated (overview statement); overview statement, assay not stated
T2 construct: also called B cell antigen CD22

B1: m971-L7 scFv (scFv)
scFv: QVQLQQSGPGMVKPSQTLSLTCAISGDSVSSNSVAWNWIRQSPSRGLEWLGRTYYRSTWYNDYAVSMKSRITINPDTNKNQFSLQLNSVTPEDTAVYYCAREVTGDLEDAFDIWGQGTMVTVSSGGGGSGGGGSGGGGSDIQMIQSPSSLSASVGDRVTITCRASQTIWSYLNWYRQRPGEAPNLLIYAASSLQSGVPSRFSGRGSGTDFTLTISSLQAEDFATYYCQQSYSIPQTFGQGTKLEIK
notes: Soluble scFv run over immobilized CD22 ECD-Fc on a BIAcore X100; also called matured variant L7
Kd [1]: < 18 pM | fold higher affinity than original scFv m971 [1]: > 1000 fold | kon [2]: 563000 M⁻¹ s⁻¹ | kon [3]: 560000 M⁻¹ s⁻¹ | koff [4]: < 1e-05 s⁻¹ | Kd [5]: 2.06 pM | koff [6]: 1.16e-06 s⁻¹

B2: affinity matured human monoclonal antibody m971-L7 (antibody, V domains shown)
VH: QVQLQQSGPGMVKPSQTLSLTCAISGDSVSSNSVAWNWIRQSPSRGLEWLGRTYYRSTWYNDYAVSMKSRITINPDTNKNQFSLQLNSVTPEDTAVYYCAREVTGDLEDAFDIWGQGTMVTVSS
VL: DIQMIQSPSSLSASVGDRVTITCRASQTIWSYLNWYRQRPGEAPNLLIYAASSLQSGVPSRFSGRGSGTDFTLTISSLQAEDFATYYCQQSYSIPQTFGQGTKLEIK
notes: Named as 'antibody' in the overview
Kd (CD22): < 50 pM
